Assay results reported in the supplement of paper PMC11246515.
± gives the standard deviation of the averaged measurements.

Assay: total protein half-life in vivo (active degradation + dilution); higher = more stable protein
[1] = E. coli NCM3722 delta-clpP delta-lon delta-hslV, growth: N-lim chemostat, doubling time 6 h
[2] = E. coli NCM3722 delta-clpP, growth: N-lim chemostat, doubling time 6 h
[3] = E. coli NCM3722 delta-hslV, growth: N-lim chemostat, doubling time 6 h
[4] = E. coli NCM3722 delta-lon, growth: N-lim chemostat, doubling time 6 h
[5] = E. coli NCM3722 delta-smpB, growth: N-lim chemostat, doubling time 6 h
[6] = wild type E. coli NCM3722, growth: C-lim chemostat, doubling time 3 h
[7] = wild type E. coli NCM3722, growth: C-lim chemostat, doubling time 6 h
[8] = wild type E. coli NCM3722, growth: C-lim chemostat, doubling time 12 h
[9] = wild type E. coli NCM3722, growth: N-lim chemostat, doubling time 6 h
[10] = wild type E. coli NCM3722, growth: N-lim chemostat, doubling time 12 h
[11] = wild type E. coli NCM3722, growth: P-lim chemostat, doubling time 6 h
[12] = wild type E. coli NCM3722, growth: P-lim chemostat, doubling time 12 h

Sequence | total protein half-life in vivo [1] | total protein half-life in vivo [2] | total protein half-life in vivo [3] | total protein half-life in vivo [4] | total protein half-life in vivo [5] | total protein half-life in vivo [6] | total protein half-life in vivo [7] | total protein half-life in vivo [8] | total protein half-life in vivo [9] | total protein half-life in vivo [10] | total protein half-life in vivo [11] | total protein half-life in vivo [12]
MLQNIRIVLVETSHTGNMGSVARAMKTMGLTNLWLVNPLVKPDSQAIALAAGASDVIGNAHIVDTLDEALAGCSLVVGTSARSRTLPWPMLDPRECGLKSVAEAANTPVALVFGRERVGLTNEELQKCHYHVAIAANPEYSSLNLAMAVQVIAYEVRMAWLATQENGEQVEHEETPYPLVDDLERFYGHLEQTLLATGFIRENHPGQVMNKLRRLFTRARPESQELNILRGILASIEQQNKGNKAE [P0AE01] | 4.67 ± 0.57 h | 4.013 ± 0.028 h | 4.18 ± 0.18 h | 5.15 ± 0.92 h | 4.43 ± 0.4 h | 2.8 ± 0.32 h | 5.41 ± 0.56 h | 9.64 ± 0.46 h | 4.34 ± 0.23 h | 7.52 ± 0.47 h | 5.22 ± 0.042 h | 10.6 ± 0.77 h
MPRFAANLSMMFTEVPFIERFAAARKAGFDAVEFLFPYNYSTLQIQKQLEQNHLTLALFNTAPGDINAGEWGLSALPGREHEAHADIDLALEYALALNCEQVHVMAGVVPAGEDAERYRAVFIDNIRYAADRFAPHGKRILVEALSPGVKPHYLFSSQYQALAIVEEVARDNVFIQLDTFHAQKVDGNLTHLIRDYAGKYAHVQIAGLPDRHEPDDGEINYPWLFRLFDEVGYQGWIGCEYKPRGLTEEGLGWFDAWR | 3.98 h | 2.21 h | 2.23 h | 2.48 ± 0.15 h | 2.41 ± 0.048 h | 2.829 ± 0.0073 h | 3.68 ± 0.23 h | 6.54 ± 0.17 h |  | 3.45 h | 4.28 h | 8.69 ± 0.052 h
MLAFCRSSLKSKKYIIILLALAAIAGLGTHAAWSSNGLPRIDNKTLARLAQQHPVVVLFRHAERCDRSTNQCLSDKTGITVKGTQDARELGNAFSADIPDFDLYSSNTVRTIQSATWFSAGKKLTVDKRLLQCGNEIYSAIKDLQSKAPDKNIVIFTHNHCLTYIAKDKRDATFKPDYLDGLVMHVEKGKVYLDGEFVNH | > 8 h | 5.63 h | 4.99 ± 1.1 h |  |  | 3 ± 1.2 h | 4.93 ± 1.4 h |  | 4.21 ± 2.1 h |  | 5.09 ± 0.5 h | 
MFTRVANFCRKVLSREESEAEQAVARPQVTVIPREQHAISRKDISENALKVMYRLNKAGYEAWLVGGGVRDLLLGKKPKDFDVTTNATPEQVRKLFRNCRLVGRRFRLAHVMFGPEIIEVATFRGHHEGNVSDRTTSQRGQNGMLLRDNIFGSIEEDAQRRDFTINSLYYSVADFTVRDYVGGMKDLKDGVIRLIGNPETRYREDPVRMLRAVRFAAKLGMRISPETAEPIPRLATLLNDIPPARLFEESLKLLQAGYGYETYKLLCEYHLFQPLFPTITRYFTENGDSPMERIIEQVLKNTDTRIHNDMRVNPAFLFAAMFWYPLLETAQKIAQESGLTYHDAFALAMNDVLDEACRSLAIPKRLTTLTRDIWQLQLRMSRRQGKRAWKLLEHPKFRAAYDLLALRAEVERNAELQRLVKWWGEFQVSAPPDQKGMLNELDEEPSPRRRTRRPRKRAPRREGTA [P0ABF1] | 6.05 ± 0.76 h | 5.89 ± 0.71 h | 3.67 ± 0.17 h | 3.728 ± 0.025 h | 3.45 ± 0.18 h | 2.324 ± 0.019 h | 4.37 ± 0.12 h | 6.58 ± 0.41 h | 3.84 ± 0.079 h | 6.19 ± 0.3 h | 3.92 ± 0.57 h | 7.24 ± 0.26 h
MGGISIWQLLIIAVIVVLLFGTKKLGSIGSDLGASIKGFKKAMSDDEPKQDKTSQDADFTAKTIADKQADTNQEQAKTEDAKRHDKEQV | 4.809 ± 0.026 h | 4.72 ± 0.96 h | 4.51 ± 0.3 h | 4.05 ± 0.54 h | 4.55 ± 0.22 h | 2.93 ± 0.082 h | 5.337 ± 0.019 h | 9.34 ± 0.37 h | 4.72 ± 0.21 h | 9.53 ± 2.4 h | 4.41 ± 0.37 h | 8.96 ± 0.53 h
MKLISNDLRDGDKLPHRHVFNGMGYDGDNISPHLAWDDVPAGTKSFVVTCYDPDAPTGSGWWHWVVVNLPADTRVLPQGFGSGLVAMPDGVLQTRTDFGKTGYDGAAPPKGETHRYIFTVHALDIERIDVDEGASGAMVGFNVHFHSLASASITAMFS |  | 5.59 ± 0.26 h | > 8 h | 5.79 ± 0.095 h | 5.96 ± 0.2 h |  | 6.07 ± 0.44 h | 13.4 ± 2 h | 5.42 ± 0.21 h | 11.4 ± 1.1 h | 6.04 ± 0.39 h | 10.9 ± 2.7 h
MSRPLLQLALDHSSLEAAQRDVTLLKDSVDIVEAGTILCLNEGLGAVKALREQCPDKIIVADWKVADAGETLAQQAFGAGANWMTIICAAPLATVEKGHAMAQRCGGEIQIELFGNWTLDDARDWHRIGVRQAIYHRGRDAQASGQQWGEADLARMKALSDIGLELSITGGITPADLPLFKDIRVKAFIAGRALAGAANPAQVAGDFHAQIDAIWGGARA | 4.65 h | 4 h | 4.08 ± 0.35 h | 4.77 h | 4.3 ± 0.38 h | 3.07 ± 0.25 h | 5.17 ± 0.32 h | 9.07 ± 0.79 h | 3.93 h | 6.66 ± 0.91 h | 5.76 h | 9.91 ± 0.32 h
MDVTAKYELIGLMAYPIRHSLSPEMQNKALEKAGLPFTYMAFEVDNDSFPGAIEGLKALKMRGTGVSMPNKQLACEYVDELTPAAKLVGAINTIVNDDGYLRGYNTDGTGHIRAIKESGFDIKGKTMVLLGAGGASTAIGAQGAIEGLKEIKLFNRRDEFFDKALAFAQRVNENTDCVVTVTDLADQQAFAEALASADILTNGTKVGMKPLENESLVNDISLLHPGLLVTECVYNPHMTKLLQQAQQAGCKTIDGYGMLLWQGAEQFTLWTGKDFPLEYVKQVMGFGA [P0A6D5] | 4.77 h |  |  |  |  |  |  |  |  |  |  | 
